This is an account of results in FireProtDB.

The conditions of the series: whole UniProt chain shown.
Setting [1] is: Armoracia rusticana, pH 7.4, 21 °C, GdnHCl, CD, Sodium phosphate 20 mM, CaCl2 1 mM, reversible: yes.
Setting [2] is: Armoracia rusticana, pH 7.4, 21 °C, GdnHCl, Fluorescence, Sodium phosphate 20 mM, CaCl2 1 mM, reversible: yes.
Setting [3] is: Bacillus amyloliquefaciens, pH 5.8, Thermal, DSC, acetate 10 mM, reversible: yes.
[4] abbreviates: Bacillus amyloliquefaciens, pH 6.2, Thermal, DSC, PIPES 0.01 M, NaCl 0.05 M, reversible: yes(54%).
The mark [5] stands for this setting: Bacillus amyloliquefaciens, pH 6.3, 25 °C, GdnSCN, CD, Sodium acetate 50 mM, reversible: yes.
The mark [6] stands for this setting: Bacillus amyloliquefaciens, pH 6.3, 25 °C, Thermal, Fluorescence, MES 50 mM, KCl, reversible: yes.
[7] abbreviates: Bacillus amyloliquefaciens, pH 6.3, 25 °C, Urea, CD, MES 50 mM, reversible: yes.
[8] abbreviates: Bacillus amyloliquefaciens, pH 6.3, 25 °C, Urea, Fluorescence, MES 19.3 mM, reversible: yes.
[9] abbreviates: Bacillus amyloliquefaciens, pH 6.3, 25 °C, Urea, Fluorescence, MES 50 mM, reversible: yes.
The mark [10] stands for this setting: Bacillus amyloliquefaciens, pH 6.3, Thermal, DSC, MES 50 mM, reversible: yes.
[11] abbreviates: Bacillus amyloliquefaciens, pH 8, 25 °C, Urea, CD, Tris-HCl 25 mM.

Several values for one entry are separate records, joined by “and”; a condition that tells them apart may be missing. Equal values may be shown once.

B1: Thioredoxin wild type, P80579 (protein)
chain: ATMTLTDANFQQAIQGDKPVLVDFWAAWCGPCRMMAPVLEEFAEAHADKVTVAKLNVDENPETTSQFGIMSIPTLILFKGGRPVKQLIGYQPKEQLEAQLADVLQ
For orientation: Tm means the temperature at the midpoint of the melting transition. In the case of B1, the “denaturant midpoint (higher = more stable)” value (from here on “denaturant midpoint”) by setting is: (Alicyclobacillus acidocaldarius subsp. acidocaldarius, pH 7, GdHCl, CD, Sodium phosphate 10 mM, reversible: yes) 2.9 M; (Alicyclobacillus acidocaldarius subsp. acidocaldarius, pH 7, Urea, CD, Sodium phosphate 10 mM, reversible: yes) 6.7 M. Further, the Tm (Alicyclobacillus acidocaldarius subsp. acidocaldarius, pH 7, Thermal, CD, Sodium phosphate 10 mM, reversible: yes) was 84.5 °C and 88.2 °C.

B2: Peroxidase C2 wild type, P17179 (protein)
chain: MHSSSSLIKLGFLLLLLNVSLSHAQLSPSFYDKTCPQVFDIATNTIKTALRSDPRIAASILRLHFHDCFVNGCDASILLDNTTSFRTEKDAFGNARSARGFDVIDTMKAAVEKACPKTVSCADLLAIAAQKSVVLAGGPSWKVPSGRRDSLRGFMDLANDNLPGPSSTLQVLKDKFRNVGLDRPSDLVALSGGHTFGKNQCQFIMDRLYNFSNSGKPDPTLDKSYLSTLRKQCPRNGNLSVLVDFDLRTPTIFDNKYYVNLKENKGLIQSDQELFSSPDASDTIPLVRAYADGQGKFFDAFVEAMIRMGNLSPSTGKQGEIRLNCRVVNSKPKIMDVVDTNDFASSI
For B2, the Tm (Armoracia rusticana, pH 7, Thermal, Fluorescence, Unknown, reversible: yes) was determined as 74 °C. The denaturant m value under setting [1] was 1.8 kcal/mol/M and the denaturant m value under setting [2] worked out at 0.3 kcal/mol/M. The unfolding free energy came to 1.82 kcal/mol under setting [1] and 2.2 kcal/mol under setting [2].

B3: wild type, Q7M1T4 (protein)
chain: ASQTITVGPWGGPGGNGWDDGSYTGIRQIELSYKEAIGSFSVIYDLNGEPFSGPKHTSKLPYKNVKIELRFPDEFLESVSGYTAPFSALATPTPVVRSLTFKTNKGRTFGPYGDEEGTYFNLPIENGLIVGFKGRTGDLLDAIGVHMAL
Turning to B3, the Tm (Artocarpus integer, pH 7.4, Thermal, CD, phosphate buffered saline (PBS) 10 mM, NaCl 150 mM, reversible: no) was 65.8 °C and the Tm (Artocarpus integer, pH 7.4, Thermal, Fluorescence, phosphate buffered saline (PBS) 10 mM, NaCl 150 mM, reversible: no) is 63.9 °C.

B4: Ribonuclease wild type, P00648 (protein)
chain: MMKMEGIALKKRLSWISVCLLVLVSAAGMLFSTAAKTETSSHKAHTEAQVINTFDGVADYLQTYHKLPDNYITKSEAQALGWVASKGNLADVAPGKSIGGDIFSNREGKLPGKSGRTWREADINYTSGFRNSDRILYSSDWLIYKTTDHYQTFTKIR
As for B4, the Tm by setting is: under setting [3], 54.3 °C; under setting [4], 54.8 °C; under setting [10], 51.5 °C. The “heat capacity change of unfolding” value runs as follows: under setting [3], 1.37 kcal/mol/K; under setting [6], 1.88 kcal/mol/K. Further, the “unfolding enthalpy (calorimetric)” value reads like this: under setting [3], 126 kcal/mol; under setting [4], 128 kcal/mol; under setting [10], 127 kcal/mol. The “unfolding enthalpy (van 't Hoff)” value by setting is: under setting [3], 124 kcal/mol; under setting [6], 84.5 kcal/mol; under setting [10], 126 kcal/mol. Also, the unfolding free energy turned out to be 10 kcal/mol (Bacillus amyloliquefaciens, pH 6, 25 °C, Thermal, CD, MES 50 mM, reversible: yes); 11 kcal/mol under setting [5]; 8.52 kcal/mol (Bacillus amyloliquefaciens, pH 6.3, 25 °C, Thermal, DSC, MES 50 mM, reversible: yes); 10.2 kcal/mol under setting [6]; 10.2 kcal/mol (Bacillus amyloliquefaciens, pH 6.3, 25 °C, Thermal, Fluorescence, MES 50 mM); 9.18 kcal/mol under setting [7]. In addition, the unfolding free energy reads like this: under setting [8], 10.5 kcal/mol; under setting [9], 8.79 kcal/mol; (Bacillus amyloliquefaciens, pH 6.3, 25 °C, Urea, Fluorescence, MES 1 M) 8.9 kcal/mol; under setting [11], 7.58 kcal/mol. Besides, the denaturant m value reads like this: under setting [5], 14.3 kcal/mol/M; under setting [7], 2.02 kcal/mol/M; under setting [9], 1.92 kcal/mol/M; under setting [11], 1.84 kcal/mol/M. The “denaturant midpoint” value under setting [5] amounted to 0.77 M, the “denaturant midpoint” value under setting [7] is 4.53 M, the “denaturant midpoint” value under setting [8] was 2.27 M and the “denaturant midpoint” value under setting [9] worked out at 4.58 M.
